# According to the supplement of paper PMC9233669:
# Variants at the floor of the assay were thinned out.
# Assays:
# [1] = test system: biotinyl-Phe-oxazolone; experiment: self-aminoacylation, catalytic enhancement (BFO) (fold over background); higher = more active; k-Seq, kA / k0A0; sequences stand for … in GGGAAUGGAUCCACAUCUACGAAUUC…UUCACUGCAGACUUGACGAAGCUG
# Outline: (§1)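 Mutagenized RNA pools (0.43 μM; 21-nt variable region) were treated with 2–1250 μM of each biotinyl-aminoacyl-oxazolone. Conditions were 50 μL HEPES/NaCl/KCl/MgCl2/CaCl2 buffer, 5% acetonitrile, pH 6.9–7.0, room temperature, 90 minutes. Catalytic enhancement, the median kA relative to the uncatalyzed rate, was derived from streptavidin capture, qPCR and Illumina sequencing.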
# [2] = test system: biotinyl-Ile-oxazolone; experiment: self-aminoacylation, catalytic enhancement (BIO) (fold over background); higher = more active; k-Seq, kA / k0A0; sequences stand for … in GGGAAUGGAUCCACAUCUACGAAUUC…UUCACUGCAGACUUGACGAAGCUG
# Outline: as §1
# [3] = test system: biotinyl-Met-oxazolone; experiment: self-aminoacylation, catalytic enhancement (BMO) (fold over background); higher = more active; k-Seq, kA / k0A0; sequences stand for … in GGGAAUGGAUCCACAUCUACGAAUUC…UUCACUGCAGACUUGACGAAGCUG
# Outline: as §1
# [4] = test system: biotinyl-Val-oxazolone; experiment: self-aminoacylation, catalytic enhancement (BVO) (fold over background); higher = more active; k-Seq, kA / k0A0; sequences stand for … in GGGAAUGGAUCCACAUCUACGAAUUC…UUCACUGCAGACUUGACGAAGCUG
# Outline: as §1
# [5] = test system: biotinyl-Leu-oxazolone; experiment: self-aminoacylation, catalytic enhancement (BLO) (fold over background); higher = more active; k-Seq, kA / k0A0; sequences stand for … in GGGAAUGGAUCCACAUCUACGAAUUC…UUCACUGCAGACUUGACGAAGCUG
# Outline: as §1
# [6] = test system: biotinyl-Trp-oxazolone; experiment: self-aminoacylation, catalytic enhancement (BWO) (fold over background); higher = more active; k-Seq, kA / k0A0; sequences stand for … in GGGAAUGGAUCCACAUCUACGAAUUC…UUCACUGCAGACUUGACGAAGCUG
# Outline: as §1
Sequence,self-aminoacylation [1],self-aminoacylation [2],self-aminoacylation [3],self-aminoacylation [4],self-aminoacylation [5],self-aminoacylation [6]
AUUACACUGAUCAUCGAGUGA [Fam2.1 aminoacylation ribozyme variant],21.1,3.19,6.59,3.71,6.95,7.71
AUUACACUGGUCACCGAGUGA [Fam2.1 aminoacylation ribozyme variant],24.5,2.95,5.29,2.91,5.41,7.35
AUUACACUGGUCAUCGACUGA [Fam2.1 aminoacylation ribozyme variant],1.11,1,0.596,0.965,0.807,0.546
AUUACACUGGUCAUCGAGGGA [Fam2.1 aminoacylation ribozyme variant],0.709,1.64,1.26,1.37,1.4,2.72
AUUACACUGGUCAUCGAGUGC [Fam2.1 aminoacylation ribozyme variant],0.887,1.06,1.32,1.05,1.38,1.56
AUUACACUGGUCAUCGAGUGU [Fam2.1 aminoacylation ribozyme variant],2.05,1.73,2.61,1.66,2.47,3.07
AUUACACUGGUCAUCUAGUGA [Fam2.1 aminoacylation ribozyme variant],35,3.07,5.64,2.65,6.24,6.76
AUUACACUGGUCGUCGAGUGA [Fam2.1 aminoacylation ribozyme variant],2.53,1.25,1.14,1.38,1.44,0.958
AUUACACUGGUUAUCGAGUGA [Fam2.1 aminoacylation ribozyme variant],45.5,4.23,7.64,3.72,8.73,10.3
AUUACAUUGGUCAUCGAGUGA [Fam2.1 aminoacylation ribozyme variant],22.8,3.03,5.35,2.95,5.8,6.85
AUUACCAUGGUCAUCAAGUGA [Fam2.1 aminoacylation ribozyme variant],5.16,2.22,3.69,2.4,4.04,5.09
AUUACCAUGGUCAUCGAGUCA [Fam2.1 aminoacylation ribozyme variant],0.683,0.821,0.695,0.778,0.823,0.451
AUUACCAUGGUCAUCGGGUGA [Fam2.1 aminoacylation ribozyme variant],96,6.52,14.7,7.28,13.6,16.2
AUUACCAUGGUCAUCGUGUGA [Fam2.1 aminoacylation ribozyme variant],27.8,1.9,4.58,2.2,4.26,5.96
AUUACCAUGGUCAUCUAGUGA [Fam2.1 aminoacylation ribozyme variant],59.9,5.41,11.1,5.38,11.1,15.6
AUUACCAUGGUCAUGGAGUGA [Fam2.1 aminoacylation ribozyme variant],24.3,3.74,5.25,3.34,5.78,7.35
AUUACCAUGGUUAUCGAGUGA [Fam2.1 aminoacylation ribozyme variant],69.6,4.38,9.62,4.79,10.6,12.2
AUUACCCAGCUCAUCGAGUGA [Fam2.1 aminoacylation ribozyme variant],1.01,1.47,1.54,1.56,1.52,1.32
AUUACCCAGGUCACCGAGUGA [Fam2.1 aminoacylation ribozyme variant],66.2,4.17,8.63,4.49,10.2,10.3
AUUACCCAGGUCAUCGAGUGG [Fam2.1 aminoacylation ribozyme variant],0.937,1.14,1.07,1.22,1.3,0.735
AUUACCCAGGUCAUCGCGUGA [Fam2.1 aminoacylation ribozyme variant],156,8.22,20.3,10.3,22.9,19.3
AUUACCCAGGUCAUCGGGUGA [Fam2.1 aminoacylation ribozyme variant],75.2,5.86,11.5,7.25,12.6,11
AUUACCCAGUUCAUCGAGUGA [Fam2.1 aminoacylation ribozyme variant],16.8,2.14,3.69,2.62,3.09,4.78
AUUACCCAUGUCAUCGAGUGA [Fam2.1 aminoacylation ribozyme variant],34.3,4.15,7.7,4.43,8.07,9.9
AUUACCCCCGUCAUCGAGUGA [Fam2.1 aminoacylation ribozyme variant],18.4,2.84,4.43,3.12,4.7,4.67
AUUACCCCGGUCAUAGAGUGA [Fam2.1 aminoacylation ribozyme variant],43.1,4.47,7.91,3.96,8.34,8.65

Sequence,self-aminoacylation [1],self-aminoacylation [2],self-aminoacylation [3],self-aminoacylation [4],self-aminoacylation [5],self-aminoacylation [6]
AUUACCCCGGUCAUCCAGUGA [Fam2.1 aminoacylation ribozyme variant],31.4,3.52,4.93,3.06,5.88,5.63
AUUACCCCGGUCAUCGAGUGG [Fam2.1 aminoacylation ribozyme variant],4.86,0.919,1.25,1.13,2.42,0.999
AUUACCCCGGUCAUCGUGUGA [Fam2.1 aminoacylation ribozyme variant],16.2,1.55,2.63,1.74,2.57,2.98
AUUACCCCGUUCAUCGAGUGA [Fam2.1 aminoacylation ribozyme variant],7.48,2.28,4.47,2.77,3.55,5.03
AUUACCCCUGUCAUCGAGUGA [Fam2.1 aminoacylation ribozyme variant],28.2,3.62,4.96,3.14,5.42,7.28
AUUACCCGGGUAAUCGAGUGA [Fam2.1 aminoacylation ribozyme variant],81,5.16,12.1,5.84,13.9,13.2
AUUACCCGGGUCAUCGAGAGA [Fam2.1 aminoacylation ribozyme variant],0.475,1.22,1.05,1.22,1.01,1.24
AUUACCCGGGUCAUCGAGUAA [Fam2.1 aminoacylation ribozyme variant],8.59,2.05,1.91,1.58,1.54,3.56
AUUACCCGGGUCAUUGAGUGA [Fam2.1 aminoacylation ribozyme variant],56.8,4.35,9.41,4.83,8.98,10.8
AUUACCCGGGUCUUCGAGUGA [Fam2.1 aminoacylation ribozyme variant],44.4,4.5,7.15,4.57,8.21,8.46
AUUACCCGGUUCAUCGAGUGA [Fam2.1 aminoacylation ribozyme variant],16.5,3.67,6.36,4.41,6.51,7.78
AUUACCCUAGACAUCGAGUGA [Fam2.1 aminoacylation ribozyme variant],37,3.77,8.71,4.07,7.96,9.09
AUUACCCUAGCCAUCGAGUGA [Fam2.1 aminoacylation ribozyme variant],9,2.02,3.86,2.13,3.46,4.91
AUUACCCUAGUCACCGAGUGA [Fam2.1 aminoacylation ribozyme variant],23.1,2.89,6.48,3.27,6.48,7.33
AUUACCCUAGUCAGCGAGUGA [Fam2.1 aminoacylation ribozyme variant],23.4,3.38,5.1,3.38,5.18,6.79
AUUACCCUAGUCAUCAAGUGA [Fam2.1 aminoacylation ribozyme variant],11.2,2.05,3.73,2.58,3.66,4.95
AUUACCCUAGUCAUCGAGCGA [Fam2.1 aminoacylation ribozyme variant],0.894,1.3,1.38,1.32,1.2,1.21
AUUACCCUAGUCAUCGAGUCA [Fam2.1 aminoacylation ribozyme variant],0.47,0.724,0.631,0.893,0.674,0.546
AUUACCCUAGUCAUCGAGUGA [Fam2.1 aminoacylation ribozyme variant],18,2.89,4.92,3.05,5.12,6.3
AUUACCCUAGUCAUCGCGUGA [Fam2.1 aminoacylation ribozyme variant],54.5,4.26,8.29,5.09,9.91,10.1
AUUACCCUAGUCAUUGAGUGA [Fam2.1 aminoacylation ribozyme variant],25.9,3.69,6.69,3.86,6.93,9.31
AUUACCCUAGUUAUCGAGUGA [Fam2.1 aminoacylation ribozyme variant],50.7,3.77,8.68,3.83,8.3,11.1
AUUACCCUCGUCAGCGAGUGA [Fam2.1 aminoacylation ribozyme variant],9.66,2.39,3.5,2.58,4.33,4.57
AUUACCCUCGUCAUCGAGUGA [Fam2.1 aminoacylation ribozyme variant],8.82,2.08,2.98,2.07,3.09,3.22
AUUACCCUCGUCAUCGAGUGG [Fam2.1 aminoacylation ribozyme variant],0.728,0.948,1.31,0.932,1.46,0.389
